Reference: US20170114104A1 (KOREA ADVANCED INSTITUTE OF SCIENCE AND TECHNOLOGY, published 2017)
Changes are numbered by the printed parent chain. Names may count otherwise.

T1: Biotinylated protein G (biotin-protein G) (site-specifically biotinylated in the N-terminal biotinylation peptide (AP, SEQ ID NO: 4) by BirA; labelled with atto532)
T1 construct: About 12 kDa protein G with the N-terminal AP peptide; also called biotin-protein G-atto532
T1 chain: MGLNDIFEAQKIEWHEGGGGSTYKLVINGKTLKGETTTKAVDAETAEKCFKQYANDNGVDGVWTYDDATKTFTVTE

B1: Monomeric rhizavidin with one mutation (1M: S69R) (designed binder)
chain: FDASNFKDFSSIASASSSWQNQSGSTMIIQVDSFGNVSGQYVNRAQGTGCQNSPYPLTGRVNGTFIAFRVGWNNSTENCNSATGWTGYAQVNGNNTEIVTSWNLAYEGGSGPAIEQGQDTFQYVPTTE
B2: Monodin (MA) (designed binder)
chain: B1 chain with S23H, Q46E, A67D, R69S, G71K, A82N, G84Q, S101R, A105K, E115W
notes: Expressed from pET21a and purified on Ni-NTA (His6 tag); also called mRA E115W/S23H/Q46E
B3: Rhizavidin (RA) (other)
chain: B1 chain with R69S
notes: Homodimer; Purified on Ni-NTA; also called dimeric rhizavidin; wild type rhizavidin

Legend:
[1] = target: T2, Biotinylated green fluorescent protein (biotin-GFP) (site-specifically biotinylated in the N-terminal biotinylation peptide (AP, SEQ ID NO: 4) by biotin ligase BirA); test: 15 % native-PAGE gel mobility shift, fluorescence of biotin-GFP [a]
T2 construct: Negatively charged GFP with the N-terminal AP biotinylation peptide

[2] = target: T2, Biotinylated green fluorescent protein …; test: native-PAGE off-rate under excess biotin, 45 °C
Source text: (§1) Data as ln(fraction bound) versus time and fitting the data to a straight line by linear regression. Dissociation rates were deduced from the slope of the line and the following equation:

[3] = target: T2, Biotinylated green fluorescent protein …; test: native-PAGE off-rate under excess biotin, 37 °C
Source text: as §1

[4] = target: T2, Biotinylated green fluorescent protein …; test: native-PAGE off-rate under excess biotin, 45 °C; reference streptavidin
Source text: as §1

[5] = target: T1, Biotinylated protein G (biotin-protein …); test: native-PAGE off-rate under excess biotin, 37 °C
Source text: as §1

[6] = target: T2, Biotinylated green fluorescent protein …; test: native-PAGE off-rate under excess biotin, 37 °C; remark: listed apart in the source
Source text: as §1

Binder	binding result [1]	koff [2]	dissociation half-life [3]	fold faster off-rate than tetrameric streptavidin [4]	koff [5]	koff [6]
B1	binds	–	–	–	–	–
B2	–	6.4e-05 s⁻¹	8.3 h	3.4 fold	4.6e-05 s⁻¹	2.3e-05 s⁻¹
B3	–	6e-05 s⁻¹	3.8 h	–	3.2e-05 s⁻¹	5e-05 s⁻¹
